# Assay results published in US20260250320A1, “LIPIDATED PEPTIDE INHIBITORS OF INTERLEUKIN-23 RECEPTOR” (Janssen Pharmaceutica NV, priority 2023, published 2026).
# *1 amine or outer side, *2 acyl side, *3 side chain or, on linkers, in order; H or OH if unused. Bridges are numbered along the chain shown (N, C = ends). Primed or numbered codes have the meaning given here. Where no end group is shown, it is not given here. Side-chain parts run from the residue outwards. [ ]: non-standard residue; d: D form. K(d) = (2R)-2-(4-((5-amino-5-carboxypentyl)amino)-4-oxobutanamido)-3-carboxy-N,N,N-trimethylpropan-1-aminium, C[N+](C)(C)C[C@@H](CC(=O)[*:3])NC(=O)CCC(=O)NCCCC[C@H](N[*:1])C(=O)[*:2]; TMAPF = 5-(4-(2-amino-2-carboxyethyl)phenoxy)-N,N,N-trimethylpentan-1-aminium, C[N+](C)(C)CCCCCOc1ccc(C[C@H](N[*:1])C(=O)[*:2])cc1; PEG2′ = PEG2 spacer unit (not further defined); Trp(7-Me) = Cc1cccc2c(C[C@H](N)C(=O)O)c[nH]c12; γGlu = O=C(O)[C@H](CCC(=O)[*:2])N[*:1]; 2Nal = N[C@@H](Cc1ccc2ccccc2c1)C(=O)O; AEF = NCCOc1ccc(C[C@H](N)C(=O)O)cc1; 3Pal = N[C@@H](Cc1cccnc1)C(=O)O; NMecPEG3a = not defined here; Pen = CC(C)(S)[C@H](N)C(=O)O; PEG2(3) = not defined here; PEG12′ = not defined here; PEG2″ = PEG2 spacer unit; Thp = NC1(C(=O)O)CCOCC1; Sar = CNCC(=O)O
# T1: interleukin-23 receptor (IL-23R) (UniProt Q5VWK5 24-629, limits assumed)
# T1 sequence (looked up): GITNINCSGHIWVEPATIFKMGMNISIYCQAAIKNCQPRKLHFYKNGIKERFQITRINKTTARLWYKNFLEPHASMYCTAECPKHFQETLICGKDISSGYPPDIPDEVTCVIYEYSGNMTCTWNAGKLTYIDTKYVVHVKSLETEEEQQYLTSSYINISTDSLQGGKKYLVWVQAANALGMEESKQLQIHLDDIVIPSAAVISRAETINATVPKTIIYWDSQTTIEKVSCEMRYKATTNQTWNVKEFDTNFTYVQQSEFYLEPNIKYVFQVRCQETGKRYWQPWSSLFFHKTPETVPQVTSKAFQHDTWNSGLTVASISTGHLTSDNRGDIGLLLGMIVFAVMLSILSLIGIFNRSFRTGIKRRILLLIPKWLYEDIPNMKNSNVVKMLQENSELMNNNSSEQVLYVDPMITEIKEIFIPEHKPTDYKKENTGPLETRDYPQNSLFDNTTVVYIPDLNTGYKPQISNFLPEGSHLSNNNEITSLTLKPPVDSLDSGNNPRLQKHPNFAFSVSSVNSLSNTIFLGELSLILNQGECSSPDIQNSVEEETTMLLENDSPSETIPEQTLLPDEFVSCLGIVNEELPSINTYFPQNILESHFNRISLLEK
# B1: SEQ ID NO: 104 (peptide)
# peptide: Ac-[dK]([PEG12′-γGlu-C20OH])[Pen]NT[Trp(7-Me)]K(Ac)[Pen][AEF][2Nal][Thp]K(Ac)N[3Pal]X-NH2
# modifications: disulfide 2-7 (inferred); not fully specified (residue 14); printed as MeCO-k(PEG12gEC20OH)-Pen(3)-N-T-7MeW-K(Ac)-Pen(3)-AEF-2Nal-THP-K(Ac)-N-3Pya-Ser-CONH2
# B2: SEQ ID NO: 83 (peptide)
# peptide: {HOC18-γGlu-PEG2″-PEG2″}-[dR][Pen]NT[Trp(7-Me)]K(Ac)[Pen][TMAPF][2Nal][Thp]EN[3Pal][Sar]-NH2
# modifications: disulfide 2-7 (inferred); not fully specified
# B3: SEQ ID NO: 66 (peptide)
# peptide: Ac-[dR][Pen]K([PEG2″-PEG2″-γGlu-C18OH])T[Trp(7-Me)]K(Ac)[Pen][AEF][2Nal][Thp]EN[3Pal][Sar]
# modifications: disulfide 2-7 (inferred); not fully specified (C-terminus); printed as MeCO-r-Pen(3)-K(PEG2PEG2gEC18OH)-T-7MeW-K(Ac)-Pen(3)-AEF-2Nal-THP-E-N-3Pya-Sar-CONH(PEG3a)
# B4: SEQ ID NO: 98 (peptide)
# peptide: Ac-[dK]([PEG12′-γGlu-C18OH])[Pen]NT[Trp(7-Me)]K(Ac)[Pen][AEF][2Nal][Thp]K(Ac)N[3Pal][Sar]-NH2
# modifications: disulfide 2-7 (inferred)
# B5: SEQ ID NO: 100 (peptide)
# peptide: XNTXXXXXXKNXX
# modifications: MeCO-Pen(3)-N-T-7MeW-K(Ac)-Pen(3)-AEF-2Nal-THP-K(PEG12gEC18OH)-N-3Pya-Sar-CONH2
# B6: SEQ ID NO: 10 (peptide)
# peptide: Ac-[dR][Pen][K(d)]T[Trp(7-Me)]K(Ac)[Pen][AEF][2Nal][Thp]EN[3Pal][Sar]-NH2
# modifications: disulfide 2-7 (inferred); not fully specified (residue 8); printed as MeCO-r-Pen(3)-K(d)-T-7MeW-K(Ac)-Pen(3)-AEF(PEG2PEG2gEC18OH)-2Nal-THP-E-N-3Pya-Sar-CONH2
# B7: SEQ ID NO: 1 (peptide)
# peptide: XNTXXXXXXENXXK
# modifications: MeCO-Pen(3)-N-T-7MeW-K(Ac)-Pen(3)-AEF-2Nal-THP-E-N-3Pya-Sar-K(Sar-S-Sar-S-Sar-S-Sar-C14)-CONH2
# B8: SEQ ID NO: 75 (peptide)
# peptide: Ac-[dR][Pen]K([PEG2″-PEG2″-γGlu-C18OH])T[Trp(7-Me)]K(Ac)[Pen][TMAPF][2Nal][Thp]EN[3Pal][Sar]-NH2
# modifications: disulfide 2-7 (inferred)
# B9: SEQ ID NO: 12 (peptide)
# peptide: Ac-[dR][Pen]K([PEG2(3)-PEG2(3)-γGlu-C18OH])T[Trp(7-Me)]K(Ac)[Pen][AEF][2Nal][Thp][K(d)]N[3Pal][Sar]-NH2
# modifications: disulfide 2-7 (inferred)
# B10: SEQ ID NO: 74 (peptide)
# peptide: Ac-[dR][Pen]K([PEG2″-PEG2″-γGlu-C18OH])T[Trp(7-Me)]K(Ac)[Pen][AEF][2Nal][Thp]K(NMecPEG3a)N[3Pal][Sar]-NH2
# modifications: disulfide 2-7 (inferred); reading uncertain; also: printed as MeCO-r-Pen(3)-K(PEG2PEG2gEC18OH)-T-7MeW-K(Ac)-Pen(3)-AEF-2Nal-THP-K(NMecPEG3a)-N-3Pya-Sar-CONH2
# B11: SEQ ID NO: 96 (peptide)
# peptide: XNTXKXXXXENXX
# modifications: MeCO-Pen(3)-N-T-7MeW-K(PEG12gEC18OH)-Pen(3)-AEF-2Nal-THP-E-N-3Pya-Sar-CONH2
# B12: SEQ ID NO: 64 (peptide)
# peptide: XNTXXXXXXKNXX
# modifications: not fully specified; MeCO-Pen(3)-N-T-7MeW-K(Ac)-Pen(3)-AEF-2Nal-THP-K(PEG2PEG2gEC18OH)-N-3Pya-Sar-CONH(PEG3a)
# B13: SEQ ID NO: 9 (peptide)
# peptide: Ac-[dR][Pen]NT[Trp(7-Me)]K(Ac)[Pen][AEF]([PEG2′-PEG2′-γGlu-C18OH])[2Nal][Thp][K(d)]N[3Pal][Sar]-NH2
# modifications: disulfide 2-7 (inferred)
# B14: SEQ ID NO: 82 (peptide)
# peptide: {HOC18-γGlu-PEG2″-PEG2″}-[dR][Pen]NT[Trp(7-Me)]K(Ac)[Pen][AEF][2Nal][Thp]K(NMecPEG3a)N[3Pal][Sar]-NH2
# modifications: disulfide 2-7 (inferred); not fully specified; printed as HOC18gEPEG2PEG2CO-r-Pen(3)-N-T-7MeW-K(Ac)-Pen(3)-AEF-2Nal-THP-K(NMecPEG3a)-N-3Pya-Sar-CONH2; reading uncertain
# B15: SEQ ID NO: 102 (peptide)
# peptide: XNTXXXXXXXNXXK
# modifications: MeCO-Pen(3)-N-T-7MeW-K(Ac)-Pen(3)-AEF-2Nal-THP-K(Ac)-N-3Pya-Sar-K(PEG12gEC18OH)-CONH2
# B16: SEQ ID NO: 65 (peptide)
# peptide: Ac-[dR][Pen]NT[Trp(7-Me)]K([PEG2″-PEG2″-γGlu-C18OH])[Pen][AEF][2Nal][Thp]EN[3Pal][Sar]
# modifications: disulfide 2-7 (inferred); not fully specified (C-terminus); printed as MeCO-r-Pen(3)-N-T-7MeW-K(PEG2PEG2gEC18OH)-Pen(3)-AEF-2Nal-THP-E-N-3Pya-Sar-CONH(PEG3a)
# B17: SEQ ID NO: 147 (peptide)
# peptide: XNTXXXXXXENXX
# modifications: not fully specified; MeCO-Pen(3)-N-T-7MeW-K(Ac)-Pen(3)-AEF-2Nal-THP-E-N-3Pya-Sar-CO(PEG2PEG2gEC18OH)
# B18: SEQ ID NO: 103 (peptide)
# peptide: XNTXXXXXXENXXK
# modifications: MeCO-Pen(3)-N-T-7MeW-K(Ac)-Pen(3)-AEF-2Nal-THP-E-N-3Pya-Sar-K(PEG12gEC20OH)-CONH2
# B19: SEQ ID NO: 84 (peptide)
# peptide: {HOC18-γGlu-PEG2′-PEG2′}-[dR][Pen]NT[Trp(7-Me)]K(NMecPEG3a)[Pen][AEF][2Nal][Thp]EN[3Pal][Sar]-NH2
# modifications: disulfide 2-7 (inferred); not fully specified; printed as HOC18gEPEG2PEG2CO-r-Pen(3)-N-T-7MeW-K(NMecPEG3a)-Pen(3)-AEF-2Nal-THP-E-N-3Pya-Sar-CONH2; reading uncertain
# B20: SEQ ID NO: 105 (peptide)
# peptide: Ac-[dR][Pen]K([PEG12′-γGlu-C18OH])T[Trp(7-Me)]K(Ac)[Pen][AEF][2Nal][Thp]EN[3Pal][Sar]-NH2
# modifications: disulfide 2-7 (inferred)
# B21: SEQ ID NO: 101 (peptide)
# peptide: XNTXXXXXXXNXXK
# modifications: MeCO-Pen(3)-N-T-7MeW-K(Ac)-Pen(3)-AEF-2Nal-THP-K(Ac)-N-3Pya-Sar-K(PEG12gEC20OH)-CONH2
# B22: SEQ ID NO: 116 (peptide)
# peptide: {HOC18-γGlu-PEG12′}-[Pen]NTK(Ac)[Pen][AEF][2Nal][Thp]EN[3Pal][Sar]-NH2
# modifications: disulfide 1-5 (inferred); not fully specified; printed as HOC18gEPEG12CO-Pen(3)-N-T-K(Ac)-Pen(3)-AEF-2Nal-THP-E-N-3Pya-Sar-CONH2
# B23: SEQ ID NO: 97 (peptide)
# peptide: Ac-[Pen]K([PEG12′-γGlu-C18OH])T[Trp(7-Me)]K(Ac)[Pen][AEF][2Nal][Thp]EN[3Pal][Sar]-NH2
# modifications: disulfide 1-6 (inferred)
# B24: SEQ ID NO: 99 (peptide)
# peptide: Ac-[dR][Pen]K([PEG12′-γGlu-C20OH])T[Trp(7-Me)]K(Ac)[Pen][AEF][2Nal][Thp]EN[3Pal][Sar]-NH2
# modifications: disulfide 2-7 (inferred)
# B25: SEQ ID NO: 5 (peptide)
# peptide: RXNTWXXXXXENXX
# modifications: C12gEPEG2PEG2CO-r-Abu(1)-N-T-W-K(Ac)-aMeC(1)-AEF-2Nal-THP-E-N-3Pya-Sar-CONH2
# B26: SEQ ID NO: 76 (peptide)
# peptide: Ac-[dR][Pen]K([PEG2″-PEG2″-γGlu-C18OH])T[Trp(7-Me)]K(NMecPEG3a)[Pen][AEF][2Nal][Thp]EN[3Pal][Sar]-NH2
# modifications: disulfide 2-7 (inferred); reading uncertain; also: printed as MeCO-r-Pen(3)-K(PEG2PEG2gEC18OH)-T-7MeW-K(NMecPEG3a)-Pen(3)-AEF-2Nal-THP-E-N-3Pya-Sar-CONH2
# B27: SEQ ID NO: 162 (peptide)
# peptide: XNTXXXXXXKNXX
# modifications: MeCO-Pen(3)-N-T-7MeW-K(Ac)-Pen(3)-AEF-2Nal-THP-K(PEG12gEC20OH)-N-3Pya-Sar-CONH2
# B28: SEQ ID NO: 160 (peptide)
# peptide: cPEG3aCO-[dR][Pen]NT[Trp(7-Me)]K(Ac)[Pen][AEF][2Nal][Thp]EN[3Pal][Sar]K([PEG2(3)-PEG2(3)-γGlu-C18OH])-NH2
# modifications: disulfide 2-7 (inferred)
# Molecular target: T1, interleukin-23 receptor (IL-23R)
# Test: cell-based or functional assay
row,"IC50, IL23R reporter assay [nM]",Binder
1,< 50,B1
2,< 50,B2
3,≥ 500,B3
4,< 50,B4
5,< 50,B5
6,< 50,B6
7,< 50,B7
8,< 50,B8
9,< 50,B9
10,< 50,B10
11,< 50,B11
12,≥ 500,B12
13,< 50,B13
14,< 50,B14
15,< 50,B15
16,≥ 500,B16
17,≥ 500,B17
18,< 50,B18
19,< 50,B19
20,< 50,B20
21,< 50,B21
22,< 50,B22
23,< 50,B23
24,< 50,B24
25,< 50,B25
26,< 50,B26

# Molecular target: T1, interleukin-23 receptor (IL-23R)
# Test: cell-based or functional assay
# Remark: another data set of the same source
row,PBMC pSTAT3 IC50 [nM],Binder
1,< 0.5,B1
2,< 0.5,B27
3,< 0.5,B2
4,< 0.5,B4
5,< 0.5,B5
6,< 0.5,B8
7,< 0.5,B10
8,< 0.5,B11
9,< 0.5,B28
10,< 0.5,B13
11,< 0.5,B14
12,< 0.5,B15
13,< 0.5,B18
14,< 0.5,B19
15,< 0.5,B20
16,< 0.5,B21
17,< 0.5,B22
18,< 0.5,B23
19,< 0.5,B24
20,< 0.5,B26
